Holding throughout (test): EMSA
For data set [1], the system named is GlrR-His10 (E. coli) (Escherichia coli).
The target in data set [2] is T1, GlrR-His10 (E. coli) (Escherichia coli) (UniProt P0AFU4).
T1 sequence: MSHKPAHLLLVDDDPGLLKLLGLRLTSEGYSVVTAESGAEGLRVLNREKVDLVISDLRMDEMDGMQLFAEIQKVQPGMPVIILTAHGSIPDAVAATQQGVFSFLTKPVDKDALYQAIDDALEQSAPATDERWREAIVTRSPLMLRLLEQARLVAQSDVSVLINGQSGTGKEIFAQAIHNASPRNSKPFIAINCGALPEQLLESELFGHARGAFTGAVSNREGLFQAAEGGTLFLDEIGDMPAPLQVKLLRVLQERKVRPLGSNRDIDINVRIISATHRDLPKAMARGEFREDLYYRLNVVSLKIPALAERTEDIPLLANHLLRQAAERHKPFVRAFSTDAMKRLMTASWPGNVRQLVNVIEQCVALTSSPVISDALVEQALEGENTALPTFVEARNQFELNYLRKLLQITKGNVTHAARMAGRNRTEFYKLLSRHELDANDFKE

Data set [3] deals with GlrR-His10 (Y. pseudotuberculosis) (Yersinia pseudotuberculosis), ORF:f09f451a.
The target in the next data set is IHF (UniProt P0A6X7+P0A6Y1).
Data set [4] deals with GlrR-His10 (Y. pseudotuberculosis) (Yersinia pseudotuberculosis).

Sequence of UniProt P0A6X7 (P0A6X7 2-99, chain 1 of 2): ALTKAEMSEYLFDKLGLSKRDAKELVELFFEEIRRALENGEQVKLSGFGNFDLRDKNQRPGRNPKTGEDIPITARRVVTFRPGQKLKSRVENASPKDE
Sequence of UniProt P0A6X7 (P0A6Y1 whole entry, chain 2 of 2): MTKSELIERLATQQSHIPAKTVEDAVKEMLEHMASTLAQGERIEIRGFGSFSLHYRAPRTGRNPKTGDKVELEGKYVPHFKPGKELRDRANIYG

In data set [1], “Y. pseudotuberculosis glmY promoter (-257 to +22)” came in with a Kd of 290 nM. “GCTCTAGAATAAGTCGGTGAATGAGCCACTGGTTACTATTATGCAGTAACTGTGCCAATAAAGAAAATAGTTTGGTAACGTACTGATTATACGTTGCTTTGAGGGGTTTATGTCTCCTCCGCTGTTTGAATGTAAATCAGCCACTGTGTCGCTAAAAAGAGACAACTTAAGATAAACTTATTAGATAATATTAAAATCAATGAGTTAAGTGTCGCCAGAAAGCGACACGGCAAACCACCCATTGTCGTGATTTACAGACACAAAAAAGGTCGACGCGTGC (double strand) [E. coli glmY promoter (-238 to +22)]” returned a dissociation constant (Kd) in data set [2] of 360 nM. Further, the binding entry (in data set [2]; in data set [3]; with IHF) was “binds” in each case. Turning to “S. typhimurium glmZ promoter (-242 to +22)”, the Kd in data set [1] was 370 nM. The same measure, in the same setting: then E. coli glmY promoter (-238 to +22), with 360 nM. Regarding “CGTCTCTAGACATAAGAAGGTGAATGAGCCACTGGTTACCATTATGCAGTAATTGTGCCAACATTCAAAAGAATTTGTTAACATAATGATAGATATGAAAAATATCGTTATTCATGCTAAAAATGGCTCTGTCTGTTTTTTGCCCTTTCTGTCGCCAATCAGCAACACCTGCAACACCTAAAAATAAAACAATTTAAAATCAAATAGTTAAATGTCTCTTTTTGGCGACAACCTATCCCCCACTCATGTCGGGATTTCCCGACACTTTAATCTTGGTCGACGCGTGC (double strand) [S. typhimurium glmY promoter (-242 to +22)]”, the Kd in data set [2] came out at 230 nM. “S. typhimurium glmY promoter (-242 to +22)” gave a Kd in data set [1] of 230 nM. As to “ATTAATGCAGCTGGCACGACAGGTTTCCCGACTGGAAAGCGGGCAGTGAGCGCAACGCAATTAATGTGAGTTAGCTCACTCATTAGGCACCCCAGGCTTTACACTTTATGCTTCCGGCTCGTATGTTGTGTGGAATTGTGAGCGGATAACAATTTCACACAGGAAACAGCTATGACCATGATTACGGATTCACTGGCCGT (double strand) [lacZ promoter 200 bp control]”, the binding result in data set [2] is “no binding”.

“Y. pseudotuberculosis glmZ promoter (-303 to +22)”: the Kd in data set [1] is 370 nM. In data set [4], this substance gave a binding signal (fold higher protein than E. coli GlrR) of 4.

For “GCACGCGTCGACGTGTTGCCATTATGATTTGTTGGCGATATCCCAGGCTTCATTTGTCGCTATTCGGTGACGAGTAATCTATTGATTTATAATCACTTTGTAAAAAGCATCCTGTTCTGTCTCCACCGGGCGACACGCTAAAACCTCGCCAGCGGCGGGGGGATGACAATCGCGTGAATTCTCTACGTTTTTTTAATGCCTGCGCCTGTTTTTTAGCGGTGCAAAGATGGCACGTTATGTGCAATAATGTACGGGTAGATGCTCATTCCATCTCTTATCTAGAGACG (double strand) [S. typhimurium glmZ promoter (-242 to +22)]”, the Kd in data set [2] worked out at 370 nM.

The values above are taken from article PMC3045617.
